Target: MS2-Biotin, biotinylated single-chain MS2 coat protein dimer with an AviTag in a surface loop of the second monomer (bacteriophage MS2)
Experiment: SEC

streptavidin (from UniProt P22629 25-183) (natural protein)
stoichiometry N (streptavidin molecules per VLP): 72
